Data set [1] deals with the molecule itself. Nature of the data set: crystal structure; hTS 20 mg/mL in 50 mM HEPES pH 7.5, 30 mM NaCl, 20 mM beta-mercaptoethanol, with 40 mM dUMP or 2 mM FdUMP; precipitant 27-30 % PEG4000, 30 mM ammonium sulfate, 0.1 M TRIS pH 9; room temperature; space groups C2 or I2, one and half dimer in the ASU.
Data set [2] concerns the molecule itself. Briefly: crystal structure; EfTS 7 mg/mL in 25 mM phosphate buffer pH 6.8, 2 mM DTT, with 100 mM dUMP or 4 mM FdUMP; precipitant 2.2-2.5 M ammonium sulfate, 0.1 M HEPES pH 7.5; room temperature; space group P21, two enzyme dimers in the ASU.

B1: human thymidylate synthase (enzyme)
chain: MPVAGSELPRRPLPPAAQERDAEPRPPHGELQYLGQIQHILRCGVRKDDRTGTGTLSVFGMQARYSLRDEFPLLTTKRVFWKGVLEELLWFIKGSTNAKELSSKGVKIWDANGSRDFLDSLGFSTREEGDLGPVYGFQWRHFGAEYRDMESDYSGQGVDQLQRVIDTIKTNPDDRRIIMCAWNPRDLPLMALPPCHALCQFYVVNSELSCQLYQRSGDMGLGVPFNIASYALLTYMIAHITGLKPGDFIHTLGDAHIYLNHIEPLKIQLQREPRPFPKLRILRKVEKIDDFKAEDFQIEGYNPHPTIKMEMAV
notes: Thymidylate synthase (EC 2.1.1.45), human, wild type; expressed from pQE-80L with a not-cleavable N-terminal His6-tag (twelve tag residues); the first twenty-five N-terminal residues and the tag were not traced in the structures; also called hTS; Human TS; source: E. coli BL21(DE3), purified (HisTrap HP); not shown: His6, N-terminal, kept
In the case of B1, the binding result in data set [1] is “binds”.

B2: Enterococcus faecalis thymidylate synthase (enzyme)
chain: MEEAYLALGKKILEEGHFKEDRTGTGTYSLFGYQMRFDLAKGFPLLTTKRVPFGLIKSELLWFLKGDTNIRYLLERNNHIWDEWAFERYVKSADYQGPDMTDFGHRVLQDPAFAEQYKEEHQKFCDAILNDAEFAEKYGELGNIYGAQWRHWETKDGSFIDQLANVIEMIKTNPDSRRLIVSAWNPEDVPSMALPPCHTMFQFYVNEGKLSCQLYQRSADVFLGVPFNIASYALLTHLIAHETGLEVGEFVHTLGDAHLYQNHVEQMQEQLSREVRSFPTLVLNPDKASVFDFDMEDIKVEGYDPHPTIKAPIAV
modifications: dUMP complex: Cys197 as S,S-(2-hydroxylethyl)thiocysteine (CME197) in subunits B and D, oxidized to sulfenic acid (S-oxycysteine, CSX197) in subunits A and C; FdUMP complex: Cys197 thiol reactive
notes: Thymidylate synthase (EC 2.1.1.45) of Enterococcus faecalis; The homodimer is asymmetric: 5-FTHF copurifies in one active site of each dimer; also called EfTS; TS; source: prepared according to an established procedure [5]; purified
Regarding B2, the binding result in data set [2] is given as “binds”.
